Values belong to the binder of their own block, whether it stands above or below them.
Columns and labels:
[1] = target: human TROP2 (hTROP2) on cells (human); experiment: cell-based or functional assay
[2] = target: human TROP2 (hTROP2) on cells (human); experiment: flow cytometry, NCI-N87 cells (express HER2 and TROP2)
[3] = target: human TROP2 (hTROP2) on cells (human); experiment: flow cytometry, NCI-H292 cells (express HER2 and TROP2)

human TROP2 (hTROP2) on cells (human), sequence (P09758 whole entry): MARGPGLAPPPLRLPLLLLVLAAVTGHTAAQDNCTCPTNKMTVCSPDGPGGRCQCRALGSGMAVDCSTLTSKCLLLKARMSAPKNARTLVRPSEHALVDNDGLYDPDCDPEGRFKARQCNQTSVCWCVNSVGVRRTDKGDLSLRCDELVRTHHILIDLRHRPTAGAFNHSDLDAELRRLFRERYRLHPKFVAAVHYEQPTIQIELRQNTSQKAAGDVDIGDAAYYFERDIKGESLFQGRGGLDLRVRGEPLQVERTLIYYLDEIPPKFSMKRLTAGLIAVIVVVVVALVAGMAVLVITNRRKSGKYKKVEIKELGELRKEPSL

endocytosis: MFI [1]: 21800
endocytosis: Percentage of Positive (%) [1]: 43.9%
B1: DS-1062 antibody analog (antibody, INN chains, looked up, V domains shown)
VH: QVQLVQSGAEVKKPGASVKVSCKASGYTFTTAGMQWVRQAPGQGLEWMGWINTHSGVPKYAEDFKGRVTISADTSTSTAYLQLSSLKSEDTAVYYCARSGFGSSYWYFDVWGQGTLVTVSS
VL: DIQMTQSPSSLSASVGDRVTITCKASQDVSTAVAWYQQKPGKAPKLLIYSASYRYTGVPSRFSGSGSGTDFTLTISSLQPEDFAVYYCQQHYITPLTFGQGTKLEIK

endocytosis, direct detection: MFI [1]: 16600
endocytosis, direct detection: Percentage of Positive Population [1]: 70.1%
endocytosis, indirect detection: MFI [1]: 16100
endocytosis, indirect detection: Percentage of Positive Population [1]: 72.2%
endocytosis: MFI [1]: 23000
endocytosis: Percentage of Positive (%) [1]: 51.2%
flow cytometry test result (%) [2]: 98.7%
flow cytometry test result (%) [3]: 97.4%
B2: Sacituzumab govitecan antibody analog (antibody, INN chains, looked up, V domains shown)
VH: QVQLQQSGSELKKPGASVKVSCKASGYTFTNYGMNWVKQAPGQGLKWMGWINTYTGEPTYTDDFKGRFAFSLDTSVSTAYLQISSLKADDTAVYFCARGGFGSSYWYFDVWGQGSLVTVSS
VL: DIQLTQSPSSLSASVGDRVSITCKASQDVSIAVAWYQQKPGKAPKLLIYSASYRYTGVPDRFSGSGSGTDFTLTISSLQPEDFAVYYCQQHYITPLTFGAGTKVEIKR

From patent US20250059297A1
